In patent publication US20100169988A1 (published 2010):

Biological target: APP-TAP-AICD (human, UniProt P05067 18-695)
Experiment: streptavidin purification of APP-TAP-AICD from brain homogenate; LTQ-FT semiquantitative method, transgenic mouse 75 vs control mouse 72

Binder	probability that this protein is enriched
Clathrin coat assembly protein AP180 (Clathrin coat-associated protein AP180) (91 kDa synaptosomal-associated protein) (other, mouse, UniProt Q61548 1-901, looked up, also called AP180_MOUSE; Clathrin coat assembly protein Aβ180) MSGQTLTDRIAAAQYSVTGSAVARAVCKATTHEVMGPKKKHLDYLIQATNETNVNIPQMADTLFERATNSSWVVVFKALVTTHHLMVHGNERFIQYLASRNTLFNLSNFLDKSGSHGYDMSTFIRRYSRYLNEKAFSYRQMAFDFARVKKGADGVMRTMVPEKLLKSMPILQGQIDALLEFDVHPNELTNGVINAAFMLLFKDLIKLFACYNDGVINLLEKFFEMKKGQCKDALEIYKRFLTRMTRVSEFLKVAEQVGIDKGDIPDLTQAPSSLMETLEQHLNTLEGKKPGNNEGSGAPSPLSKSSPATTVTSPNSTPAKTIDTSPPVDIFATASAAAPVSSAKPSSDLLDLQPDFSGAAAGAAAPVVPPSGGATAWGDLLGEDSLAALSSVPCEAPISDPFAPEPSPPTTTTEPASASASTTTAVTAVTTEVDLFGDAFAASPGEAPAASEGATAPATPAPVAAALDACSGNDPFAPSEGSAEAAPELDLFAMKPPETSAPVVTPTASTAPPVPATAPSPAPTAVAATAATTTAAAAATTTATTSAAAATTAAAPPALDIFGDLFDSAPEVAAAPKPDAAPSIDLFGTDAFSSPPRGASPVPESSLTADLLSVDAFAAPSPASTASPAKAESSGVIDLFGDAFGSGASETQPAPQAVSSSSASADLLAGFGGSFMAPSTTPVTPAQNNLLQPSFEAAFGTTPSTSSSSSFDPSVFDGLGDLLMPTMAPSGQPAPVSMVPPSPAMAASKGLGSDLDSSLASLVGNLGISGTTSKKGDLQWNAGEKKLTGGANWQPKVTPATWSAGVPPQGTVPPTSSVPPGAGAPSVGQPGAGFGMPPSGTGMTMMSQQPVMFAQPMMRPPFGAAAVPGTQLSPSPTPATQSPKKPPAKDPLADLNIKDFL	0.85
Plasma membrane calcium-transporting ATPase 2 (PMCA2) (enzyme, mouse, UniProt Q9R0K7 1-1198, looked up, also called AT2B2_MOUSE) MGDMTNSDFYSKNQRNESSHGGEFGCTMEELRSLMELRGTEAVVKIKETYGDTEAICRRLKTSPVEGLPGTAPDLEKRKQIFGQNFIPPKKPKTFLQLVWEALQDVTLIILEIAAIISLGLSFYHPPGESNEGCATAQGGAEDEGEAEAGWIEGAAILLSVICVVLVTAFNDWSKEKQFRGLQSRIEQEQKFTVVRAGQVVQIPVAEIVVGDIAQIKYGDLLPADGLFIQGNDLKIDESSLTGESDQVRKSVDKDPMLLSGTHVMEGSGRMVVTAVGVNSQTGIIFTLLGAGGEEEEKKDKKAKQQDGAAAMEMQPLKSAEGGDADDKKKANMHKKEKSVLQGKLTKLAVQIGKAGLVMSAITVIILVLYFTVDTFVVNKKPWLTECTPVYVQYFVKFFIIGVTVLVVAVPEGLPLAVTISLAYSVKKMMKDNNLVRHLDACETMGNATAICSDKTGTLTTNRMTVVQAYVGDVHYKEIPDPSSINAKTLELLVNAIAINSAYTTKILPPEKEGALPRQVGNKTECGLLGFVLDLRQDYEPVRSQMPEEKLYKVYTFNSVRKSMSTVIKMPDESFRMYSKGASEIVLKKCCKILSGAGEARVFRPRDRDEMVKKVIEPMACDGLRTICVAYRDFPSSPEPDWDNENDILNELTCICVVGIEDPVRPEVPEAIRKCQRAGITVRMVTGDNINTARAIAIKCGIIHPGEDFLCLEGKEFNRRIRNEKGEIEQERIDKIWPKLRVLARSSPTDKHTLVKGIIDSTHTEQRQVVAVTGDGTNDGPALKKADVGFAMGIAGTDVAKEASDIILTDDNFSSIVKAVMWGRNVYDSISKFLQFQLTVNVVAVIVAFTGACITQDSPLKAVQMLWVNLIMDTFASLALATEPPTETLLLRKPYGRNKPLISRTMMKNILGHAVYQLTLIFTLLFVGEKMFQIDSGRNAPLHSPPSEHYTIIFNTFVMMQLFNEINARKIHGERNVFDGIFRNPIFCTIVLGTFAIQIVIVQFGGKPFSCSPLQLDQWMWCIFIGLGELVWGQVIATIPTSRLKFLKEAGRLTQKEEIPEEELNEDVEEIDHAERELRRGQILWFRGLNRIQTQIRVVKAFRSSLYEGLEKPESRTSIHNFMAHPEFRIEDSQPHIPLIDDTDLEEDAALKQNSSPPSSLNKNNSAIDSGINLTTDTSKSATSSSPGSPIHSLETSL	0.86
phosphoglycerate mutase 1 (enzyme, mouse, UniProt Q9DBJ1 1-254, looked up, also called PGAM1_MOUSE) MAAYKLVLIRHGESAWNLENRFSGWYDADLSPAGHEEAKRGGQALRDAGYEFDICFTSVQKRAIRTLWTVLDAIDQMWLPVVRTWRLNERHYGGLTGLNKAETAAKHGEAQVKIWRRSYDVPPPPMEPDHPFYSNISKDRRYADLTEDQLPSCESLKDTIARALPFWNEEIVPQIKEGKRVLIAAHGNSLRGIVKHLEGLSEEAIMELNLPTGIPIVYELDKNLKPIKPMQFLGDEETVRKAMEAVAAQGKVKK	0.86
